In publication PMC4761300 (Molecular cell, 2016):

Biological target: the molecule itself
Assay: SDS-PAGE of bicelle-reconstituted peptide

| Protein | stoichiometry N |
| --- | --- |
| RSNLGWLSLLLLPIPLIVWVKRKEVQKT [human Fas-TM (transmembrane domain peptide of human Fas, C178S)] | 3 |
| RNRLWLLTILVLLIPLVFIYRKYRKRKS [mouse Fas-TM (transmembrane domain peptide of mouse Fas)] | 3 |
